According to article PMC4321490, “Structural analysis of DNA binding by C.Csp231I, a member of a novel class of R-M controller proteins regulating gene expression”:

What was measured:
[1] = target: C.Csp231I controller protein (Citrobacter sp. RFL231); assay: crystal structure; C.Csp231I in complex with 21 bp OL or OR operator DNA duplexes; three crystal forms (P6(1) OL 2.30 Å, C2 OL 2.75 Å, P6(1) OR 1.80 Å); subunits within one protein dimer
C.Csp231I (two dimers) [2] = target: T1, C.Csp231I (two dimers) (Citrobacter sp. RFL231, UniProt Q32WH4 1-98); assay: EMSA; larger complex at 4:1 and above; 2 uM DNA; EMSA: 10 mM Tris-HCl pH 8.0, 0.1 M NaCl, 1 mM EDTA, room temperature 30 min, 2 uM DNA, 6.5% native PAGE in 0.25x TBE; AUC: same buffer, 20 C; details: protein: recombinant; chain copies: 4
T1 sequence: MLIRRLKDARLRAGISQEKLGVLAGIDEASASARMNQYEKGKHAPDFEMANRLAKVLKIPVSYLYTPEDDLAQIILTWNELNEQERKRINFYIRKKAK

C.Csp231I [3] = target: T2, C.Csp231I (Citrobacter sp. RFL231, UniProt Q32WH4 1-98); assay: EMSA; single complex up to 2:1 subunits per duplex; 2 uM DNA; EMSA: 10 mM Tris-HCl pH 8.0, 0.1 M NaCl, 1 mM EDTA, room temperature 30 min, 2 uM DNA, 6.5% native PAGE in 0.25x TBE; AUC: same buffer, 20 C; details: protein: recombinant; chain copies: 2
T2 sequence: T1 sequence

C.Csp231I [4] = target: T2, C.Csp231I; assay: crystal structure; C2 form, 2.75 A, two complexes per asymmetric unit; EMSA: 10 mM Tris-HCl pH 8.0, 0.1 M NaCl, 1 mM EDTA, room temperature 30 min, 2 uM DNA, 6.5% native PAGE in 0.25x TBE; AUC: same buffer, 20 C; details: protein: recombinant; chain copies: 2
C.Csp231I (two dimers) [5] = target: T1, C.Csp231I (two dimers); assay: EMSA; little effect of spacer mutation; 2 uM DNA; EMSA: 10 mM Tris-HCl pH 8.0, 0.1 M NaCl, 1 mM EDTA, room temperature 30 min, 2 uM DNA, 6.5% native PAGE in 0.25x TBE; AUC: same buffer, 20 C; details: protein: recombinant; chain copies: 4
C.Csp231I [6] = target: T2, C.Csp231I; assay: EMSA; single dimer at the OL site; 2 uM DNA; EMSA: 10 mM Tris-HCl pH 8.0, 0.1 M NaCl, 1 mM EDTA, room temperature 30 min, 2 uM DNA, 6.5% native PAGE in 0.25x TBE; AUC: same buffer, 20 C; details: protein: recombinant; chain copies: 2
C.Csp231I [7] = target: T2, C.Csp231I; assay: EMSA; one dimer binds; 2 uM DNA; EMSA: 10 mM Tris-HCl pH 8.0, 0.1 M NaCl, 1 mM EDTA, room temperature 30 min, 2 uM DNA, 6.5% native PAGE in 0.25x TBE; AUC: same buffer, 20 C; details: protein: recombinant; chain copies: 2

Molecule: C.Csp231I controller protein (natural protein)
- stoichiometry N [1]: 2

B1: 54-1 (native OL+OR) (dsDNA)
DNA 1: ACACTAAGGAAAACTTAGTAAAATTGCTTTTTTAAACTAAGAAAATCTTAGCAA
DNA 2: TTGCTAAGATTTTCTTAGTTTAAAAAAGCAATTTTACTAAGTTTTCCTTAGTGT
- binding result (C.Csp231I (two dimers) [2]): binds
- binding result (C.Csp231I [3]): binds

B2: OL 21-mer (dsDNA)
DNA 1: ACACTAAGGAAAACTTAGTAA
DNA 2: TTACTAAGTTTTCCTTAGTGT
- binding result (C.Csp231I [4]): binds

B3: 54-3 (spacer randomized) (dsDNA)
DNA 1: ACACTAAGGAAAACTTAGTAACTGCATGCTACCAAACTAAGAAAATCTTAGCAA
DNA 2: TTGCTAAGATTTTCTTAGTTTGGTAGCATGCAGTTACTAAGTTTTCCTTAGTGT
- binding result (C.Csp231I (two dimers) [5]): binds

B4: 54-2 (OR randomized) (dsDNA)
DNA 1: ACACTAAGGAAAACTTAGTAAAATTGCTTTTTTAAATAAGACTCGTTAAAAAAC
DNA 2: GTTTTTTAACGAGTCTTATTTAAAAAAGCAATTTTACTAAGTTTTCCTTAGTGT
- binding result (C.Csp231I [6]): binds

B5: 48-1 (6 bp spacer deletion) (dsDNA)
DNA 1: ACACTAAGGAAAACTTAGTAAAATTTTAAACTAAGAAAATCTTAGCAA
DNA 2: TTGCTAAGATTTTCTTAGTTTAAAATTTTACTAAGTTTTCCTTAGTGT
- binding result (C.Csp231I [7]): binds
